According to PMC12658005 (Communications Biology, 2025):

Target: the molecule itself
Assay: cryo-EM structure

B1: F plasmid TraT protein complex (TraT-TS) (natural protein)
chain: CGAMSTAIKKRNLEVKTQMSETIWLEPASERTVFLQIKNTSDKDMSGLQGKIADAVKAKGYQVVTSPDKAYYWIQANVLKADKMDLRESQGWLNRGYEGAAVGAALGAGITGYNSNSAGATLGVGLAAGLVGMAADAMVEDVNYTMITDVQIAERTKATVTTDNVAALRQGTSGAKIQTSTETGNQHKYQTRVVSNANKVNLKFEEAKPVLEDQLAKSIANIL
modifications: lipid anchor on the N-terminal cysteine (density not resolved)
notes: also called TraTF; TraT exclusion protein complex; copies: 10
stoichiometry N: 10
